In patent US20150344570A1 (published 2015):

B1: GpH7-A5/GpH7-B3 variant G236_07I/GpL16-k0 (antibody, human IgG1, kappa)
heavy 1: not shown
heavy 2: not shown
light: DIVMTQSPLSLPVTPGEPASISCQASESLVHSNRNTYLHWYLQKPGQSPQLLIYKVSNRFSGVPDRFSGSGSGTDFTLKISRVEAEDVGVYYCSQNTHVPPTFGQGTKVEIERTVAAPSVFIFPPSDEQLKSGTASVVCLLNNFYPREAKVQWKVDNALQSGNSQESVTEQDSKDSTYSLSSTLTLSKADYEKHKVYACEVTHQGLSSPVTKSFNRGEC
notes: Heterodimerized anti-glypican-3 IgG1; mutation only in the GpH7-B3 H chain; also called He Ab
B2: GpH7-A5/GpH7-B3 variant P238_01G/GpL16-k0 (antibody, human IgG1, kappa)
heavy 1: not shown
heavy 2: not shown
light: B1 light
notes: Heterodimerized anti-glypican-3 IgG1; mutation in one H chain only; also called He Ab
B3: GpH7-A5/GpH7-B3 variant P238_18N/GpL16-k0 (antibody, human IgG1, kappa)
heavy 1: not shown
heavy 2: not shown
light: B1 light
notes: as for B1
B4: GpH7-A5/GpH7-B3 variant D265_03V/GpL16-k0 (antibody, human IgG1, kappa)
heavy 1: not shown
heavy 2: not shown
light: B1 light
notes: as for B2
B5: GpH7-A5/GpH7-B3 variant S239_16H/GpL16-k0 (antibody, human IgG1, kappa)
heavy 1: not shown
heavy 2: not shown
light: B1 light
notes: as for B1
B6: GpH7-A5/GpH7-B3 variant G237_03V/GpL16-k0 (antibody, human IgG1, kappa)
heavy 1: not shown
heavy 2: not shown
light: B1 light
notes: as for B1
B7: GpH7-A5/GpH7-B3 variant G236_16H/GpL16-k0 (antibody, human IgG1, kappa)
heavy 1: not shown
heavy 2: not shown
light: B1 light
notes: as for B1
B8: GpH7-A5/GpH7-B3 variant S239_11K/GpL16-k0 (antibody, human IgG1, kappa)
heavy 1: not shown
heavy 2: not shown
light: B1 light
notes: as for B1
B9: GpH7-A5/GpH7-B3 variant G236_19Q/GpL16-k0 (antibody, human IgG1, kappa)
heavy 1: not shown
heavy 2: not shown
light: B1 light
notes: as for B1
B10: GpH7-A5/GpH7-B3 variant G236_08L/GpL16-k0 (antibody, human IgG1, kappa)
heavy 1: not shown
heavy 2: not shown
light: B1 light
notes: as for B1
B11: GpH7-A5/GpH7-B3 variant G236_14T/GpL16-k0 (antibody, human IgG1, kappa)
heavy 1: not shown
heavy 2: not shown
light: B1 light
notes: as for B1
B12: GpH7-A5/GpH7-B3 variant G237_05P/GpL16-k0 (antibody, human IgG1, kappa)
heavy 1: not shown
heavy 2: not shown
light: B1 light
notes: as for B1
B13: GpH7-A5/GpH7-B3 variant G237_16H/GpL16-k0 (antibody, human IgG1, kappa)
heavy 1: not shown
heavy 2: not shown
light: B1 light
notes: as for B1
B14: GpH7-A5/GpH7-B3 variant G236_20W/GpL16-k0 (antibody, human IgG1, kappa)
heavy 1: not shown
heavy 2: not shown
light: B1 light
notes: Heterodimerized anti-glypican-3 IgG1; mutation only in the GpH7-B3 H chain; also called He Ab; GpH7-A5/GpH7-B3-03-20W/GpL16-k0
B15: GpH7-A5/GpH7-B3 variant P238_12R/GpL16-k0 (antibody, human IgG1, kappa)
heavy 1: not shown
heavy 2: not shown
light: B1 light
notes: as for B1
B16: GpH7-A5/GpH7-B3 variant D265_01G/GpL16-k0 (antibody, human IgG1, kappa)
heavy 1: not shown
heavy 2: not shown
light: B1 light
notes: as for B2
B17: GpH7-A5/GpH7-B3 variant G236_15Y/GpL16-k0 (antibody, human IgG1, kappa)
heavy 1: not shown
heavy 2: not shown
light: B1 light
notes: as for B1
B18: GpH7-A5/GpH7-B3 variant D265_06M/GpL16-k0 (antibody, human IgG1, kappa)
heavy 1: not shown
heavy 2: not shown
light: B1 light
notes: as for B2
B19: GpH7-A5/GpH7-B3 variant G236_11K/GpL16-k0 (antibody, human IgG1, kappa)
heavy 1: not shown
heavy 2: not shown
light: B1 light
notes: as for B1
B20: GpH7-A5/GpH7-B3 variant P238_11K/GpL16-k0 (antibody, human IgG1, kappa)
heavy 1: not shown
heavy 2: not shown
light: B1 light
notes: as for B1
B21: GpH7-A5/GpH7-B3 variant P238_14T/GpL16-k0 (antibody, human IgG1, kappa)
heavy 1: not shown
heavy 2: not shown
light: B1 light
notes: as for B1
B22: GpH7-A5/GpH7-B3 variant D265_04F/GpL16-k0 (antibody, human IgG1, kappa)
heavy 1: not shown
heavy 2: not shown
light: B1 light
notes: as for B2
B23: GpH7-A5/GpH7-B3 variant S239_04F/GpL16-k0 (antibody, human IgG1, kappa)
heavy 1: not shown
heavy 2: not shown
light: B1 light
notes: as for B1
B24: GpH7-A5/GpH7-B3 variant P238_02A/GpL16-k0 (antibody, human IgG1, kappa)
heavy 1: not shown
heavy 2: not shown
light: B1 light
notes: as for B1
B25: GpH7-A5/GpH7-B3 variant S239_12R/GpL16-k0 (antibody, human IgG1, kappa)
heavy 1: not shown
heavy 2: not shown
light: B1 light
notes: as for B1
B26: GpH7-A5/GpH7-B3 variant G237_14T/GpL16-k0 (antibody, human IgG1, kappa)
heavy 1: not shown
heavy 2: not shown
light: B1 light
notes: as for B1
B27: GpH7-A5/GpH7-B3 variant P238_13S/GpL16-k0 (antibody, human IgG1, kappa)
heavy 1: not shown
heavy 2: not shown
light: B1 light
notes: as for B1
B28: GpH7-A5/GpH7-B3 variant G236_12R/GpL16-k0 (antibody, human IgG1, kappa)
heavy 1: not shown
heavy 2: not shown
light: B1 light
notes: as for B1
B29: GpH7-A5/GpH7-B3 variant P238_01G/GpL16-k0 (antibody, human IgG1, kappa)
heavy 1: not shown
heavy 2: not shown
light: B1 light
notes: as for B1
B30: GpH7-A5/GpH7-B3 variant P238_07I/GpL16-k0 (antibody, human IgG1, kappa)
heavy 1: not shown
heavy 2: not shown
light: B1 light
notes: as for B1
B31: GpH7-A5/GpH7-B3 variant D265_02A/GpL16-k0 (antibody, human IgG1, kappa)
heavy 1: not shown
heavy 2: not shown
light: B1 light
notes: as for B2
B32: GpH7-A5/GpH7-B3 variant S239_15Y/GpL16-k0 (antibody, human IgG1, kappa)
heavy 1: not shown
heavy 2: not shown
light: B1 light
notes: as for B1
B33: GpH7-A5/GpH7-B3 variant D265_07I/GpL16-k0 (antibody, human IgG1, kappa)
heavy 1: not shown
heavy 2: not shown
light: B1 light
notes: as for B2

Legend:
[1] = target: T1, FcγRIa extracellular domain with C-terminal His tag (human, UniProt P12314 16-292); test: SPR (Biacore), antibody captured, FcγR analyte; relative to GpH7-A5/GpH7-B3/GpL16-k0 = 100
T1 construct: extracellular domain; also called FcgRI; CD64; not shown: His tag at the C terminus
T1 sequence (P12314 16-292): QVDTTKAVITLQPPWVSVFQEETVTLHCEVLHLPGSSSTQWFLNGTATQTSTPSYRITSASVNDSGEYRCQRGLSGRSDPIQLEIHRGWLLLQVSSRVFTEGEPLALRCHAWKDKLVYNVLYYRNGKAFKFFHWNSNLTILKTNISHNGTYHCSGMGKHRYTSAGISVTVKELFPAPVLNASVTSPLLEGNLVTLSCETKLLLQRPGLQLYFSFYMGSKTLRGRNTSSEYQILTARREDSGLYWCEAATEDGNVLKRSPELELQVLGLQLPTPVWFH

[2] = target: T2, FcγRIIb extracellular domain with C-terminal His tag (human, UniProt P31994 43-217); test: as above
T2 construct: extracellular domain; also called FcgRIIb; CD32B; not shown: His tag at the C terminus
T2 sequence (looked up): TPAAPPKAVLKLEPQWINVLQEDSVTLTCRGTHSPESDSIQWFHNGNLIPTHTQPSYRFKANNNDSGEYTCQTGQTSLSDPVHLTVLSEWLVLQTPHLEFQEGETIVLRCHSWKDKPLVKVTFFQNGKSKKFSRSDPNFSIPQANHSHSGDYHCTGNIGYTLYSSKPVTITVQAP

[3] = target: T1, FcγRIa extracellular domain with …; test: SPR; He/Con_1a divided by He/Con_2b (FcγRIa against FcγRIIb)
[4] = target: T3, FcγRIIa R (human, UniProt P12318 34-217); test: SPR (Biacore T100); He/Con_2aR divided by He/Con_2b (FcγRIIa R over FcγRIIb)
T3 construct: extracellular domain; also called FcgRIIa R; FcγRIIa type R; not shown: His tag at the C terminus
T3 sequence (looked up): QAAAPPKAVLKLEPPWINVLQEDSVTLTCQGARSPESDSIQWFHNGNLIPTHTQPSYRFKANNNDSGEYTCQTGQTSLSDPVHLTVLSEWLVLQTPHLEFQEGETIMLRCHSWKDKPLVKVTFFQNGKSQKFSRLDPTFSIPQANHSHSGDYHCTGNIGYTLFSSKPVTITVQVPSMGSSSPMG
Protocol: (§1) The heterodimerized antibodies He Abs in which one of the H chains was introduced with an alteration were assayed for their binding activities to each activating FcγR and inhibitory FcγR according to the method described in Example 4. […] The activating FcγRs in FIGS. 26, 27, 28, and 29 are FcγRIa, FcγRIIa (R), FcγRIIa (H), and FcγRIIIa, respectively.
(§2) Analysis of interaction between objective antibody and the FcγR was carried out using Biacore T100 (GE Healthcare). HBS-EP+ (GE Healthcare) was used as the running buffer, and the measurement temperature was set to 25° C. Chips produced by immobilizing the antigen peptide by the amine coupling method to a Series S Sencor Chip CM5 (GE Healthcare), or alternatively, chips produced by allowing preliminarily biotinylated antigen peptides to interact with and immobilize onto a Series S Sensor Chip SA (certified) (GE Healthcare) were used. Antibodies of interest were captured onto an antigen peptide-immobilized chip, and allowed to interact to each FcγR diluted with running buffer. To regenerate and repeatedly use the chip, the antibodies captured on the chip were washed off by reacting 10 mM glycine-HCl, pH 1.5.

[5] = target: T4, FcγRIIb (human, UniProt P31994 43-217); test: SPR (Biacore T100), antibody captured on antigen peptide chip, FcγR as analyte; binding relative to GpH7-A5/GpH7-B3/GpL16-k0 = 100
T4 construct: extracellular domain; also called FcgRIIb; 2b; not shown: His tag at the C terminus
T4 sequence (looked up): T2 sequence (looked up)
Protocol: as §1, §2

[6] = target: T3, FcγRIIa R; test: as above
Protocol: as §1, §2

Binder	He/Con_1a [1]	He/Con_2b [2]	He_1a/2b (Ia/IIb) [3] [ratio]	He_2aR/2b (IIaR/IIb) [4] [ratio]	He/Con_2b (IIb binding) [5]	He/Con_2aR (IIaR binding) [6]
B1	87.5 % of HeCon Ab	31 % of HeCon Ab	2.82	–	–	–
B2	–	–	–	1.34	56 % of control	75 % of control
B3	93.3 % of HeCon Ab	73.2 % of HeCon Ab	1.27	–	–	–
B4	–	–	–	1.8	3.2 % of control	5.8 % of control
B5	88.1 % of HeCon Ab	49.4 % of HeCon Ab	1.78	–	–	–
B6	78.5 % of HeCon Ab	61.4 % of HeCon Ab	1.28	–	–	–
B7	83.5 % of HeCon Ab	27.9 % of HeCon Ab	2.99	–	–	–
B8	68 % of HeCon Ab	24.7 % of HeCon Ab	2.75	–	–	–
B9	92.1 % of HeCon Ab	46.6 % of HeCon Ab	1.98	–	–	–
B10	79.6 % of HeCon Ab	26.8 % of HeCon Ab	2.97	–	–	–
B11	92.2 % of HeCon Ab	57.8 % of HeCon Ab	1.59	–	–	–
B12	44.5 % of HeCon Ab	24.6 % of HeCon Ab	1.81	–	–	–
B13	72.6 % of HeCon Ab	55.2 % of HeCon Ab	1.32	–	–	–
B14	105 % of HeCon Ab	58.2 % of HeCon Ab	1.81	–	–	–
B15	77.3 % of HeCon Ab	51.4 % of HeCon Ab	1.5	–	–	–
B16	–	–	–	1.49	16.1 % of control	24.1 % of control
B17	92.5 % of HeCon Ab	39.5 % of HeCon Ab	2.34	–	–	–

Binder	He/Con_1a [1]	He/Con_2b [2]	He_1a/2b (Ia/IIb) [3] [ratio]	He_2aR/2b (IIaR/IIb) [4] [ratio]	He/Con_2b (IIb binding) [5]	He/Con_2aR (IIaR binding) [6]
B18	–	–	–	1.58	10 % of control	15.8 % of control
B19	71 % of HeCon Ab	49.8 % of HeCon Ab	1.42	–	–	–
B20	77.4 % of HeCon Ab	18.1 % of HeCon Ab	4.27	–	–	–
B21	91.1 % of HeCon Ab	50.7 % of HeCon Ab	1.8	–	–	–
B22	–	–	–	1.79	3.2 % of control	5.6 % of control
B23	93.8 % of HeCon Ab	44.1 % of HeCon Ab	2.13	–	–	–
B24	95.2 % of HeCon Ab	57.4 % of HeCon Ab	1.66	–	–	–
B25	86.5 % of HeCon Ab	39.1 % of HeCon Ab	2.21	–	–	–
B26	82.3 % of HeCon Ab	54.8 % of HeCon Ab	1.5	–	–	–
B27	96.6 % of HeCon Ab	70.4 % of HeCon Ab	1.37	–	–	–
B28	63.1 % of HeCon Ab	6.8 % of HeCon Ab	9.3	–	–	–
B29	92.9 % of HeCon Ab	56 % of HeCon Ab	1.66	–	–	–
B30	99.1 % of HeCon Ab	80 % of HeCon Ab	1.24	–	–	–
B31	–	–	–	1.71	19.9 % of control	33.9 % of control
B32	89.8 % of HeCon Ab	34.9 % of HeCon Ab	2.57	–	–	–
B33	–	–	–	2.57	1.3 % of control	3.4 % of control
